# From patent publication US7951562B2, “Method for glycosylating hydroxylysine residues in polypeptides or peptides” (Oulun Yliopisto, priority 2000, dated 2011)
# B1: Mutation 2: human LH3 mutant, amino acids 25-520 normal, amino acids 521-738 missing (protein, listed as Homo sapiens)
# chain: SDRPRGRDPVNPEKLLVITVATAETEGYLRFLRSAEFFNYTVRTLGLGEEWRGGDVARTVGGGQKVRWLKKEMEKYADREDMIIMFVDSYDVILAGSPTELLKKFVQSGSRLLFSAESFCWPEWGLAEQYPEVGTGKRFLNSGGFIGFATTIHQIVRQWKYKDDDDDQLFYTRLYLDPGLREKLSLNLDHKSRIFQNLNGALDEVVLKFDRNRVRIRNVAYDTLPIVVHGNGPTKLQLNYLGNYVPNGWTPEGGCGFCNQDRRTLPGGQPPPRVFLAVFVEQPTPFLPRFLQRLLLLDYPPDRVTLFLHNNEVFHEPHIADSWPQLQDHFSAVKLVGPEEALSPGEARDMAMDLCRQDPECEFYFSLDADAVLTNLQTLRILIEENRKVIAPMLSRHGKLWSNFWGALSPDEYYARSEDYVELVQRKRVGVWNVPYISQAYVIRGDTLRMELPQRDVFSGSDTDPDMAFCKSFRDKGIFLHLSNQHEFGRLLATSR
# B2: Mutation 1: human LH3 mutant, amino acids 25-231 normal, amino acids 232-356 modified (frame shift) (protein, listed as Homo sapiens)
# chain: SDRPRGRDPVNPEKLLVITVATAETEGYLRFLRSAEFFNYTVRTLGLGEEWRGGDVARTVGGGQKVRWLKKEMEKYADREDMIIMFVDSYDVILAGSPTELLKKFVQSGSRLLFSAESFCWPEWGLAEQYPEVGTGKRFLNSGGFIGFATTIHQIVRQWKYKDDDDDQLFYTRLYLDPGLREKLSLNLDHKSRIFQNLNGALDEVVLSLIGTVCVSGTWPTTRSPLWSMETVPLSCSSTTWETTSPMAGLLREAVASATRTGGHSRGGSLPPGCFWPCLWNSLLRFCPASCSGCYSWTIPPTGSPFSCTTTRSSMNPTSLTPGRSSRTTSQL
# B3: LH2a: recombinant human lysyl hydroxylase isoform 2, alternatively spliced form a (protein)
# chain: ADSEKPSSIPTDKLLVITVATKESDGFHRFMQSAKYFNYTVKVLGQGEEWRGGDGINSIGGGQKVRLMKEVMEHYADQDDLVVMFTECFDVIFAGGPEEVLKKFQKANHKVVFAADGILWPDKRLADKYPVVHIGKRYLNSGGFIGYAPYVNRIVQQWNLQDNDDDQLFYTKVYIDPLKREAINITLDHKCKIFQTLNGAVDEVVLKFENGKARAKNTFYETLPVAINGNGPTKILLNYFGNYVPNSWTQDNGCTLCEFDTVDLSAVDVHPNVSIGVFIEQPTPFLPRFLDILLTLDYPKEALKLFIHNKEVYHEKDIKVFFDKAKHEIKTIKIVGPEENLSQAEARNMGMDFCRQDEKCDYYFSVDADVVLTNPRTLKILIEQNRKIIAPLVTRHGKLWSNFWGALSPDGYYARSEDYVDIVQGNRVGVWNVPYMANVYLIKGKTLRSEMNERNYFVRDKLDPDMALCRNAREMGVFMYISNRHEFGRLLSTANYNTSHYNNDLWQIFENPVDWKEKYINRDYSKIFTENIVEQPCPDVFWFPIFSEKACDELVEEMEHYGKWSGGKHHDSRISGGYENVPTDDIHMKQVDLENVWLDFIREFIAPVTLKVFAGYYTKGFALLNFVVKYSPERQRSLRPHHDASTFTINIALNNVGEDFQGGGCKFLRYNCSIESPRKGWSFMHPGRLTHLHEGLPVKNGTRYIAVSFIDP
# modifications: left off: small tags and cut ends
# notes: recombinant human lysyl hydroxylase isoform 2, alternatively spliced form a
# B4: Mutation 4: human LH3 mutant, amino acids 25-668 normal, amino acids 669-698 modified (protein, listed as Homo sapiens)
# chain: SDRPRGRDPVNPEKLLVITVATAETEGYLRFLRSAEFFNYTVRTLGLGEEWRGGDVARTVGGGQKVRWLKKEMEKYADREDMIIMFVDSYDVILAGSPTELLKKFVQSGSRLLFSAESFCWPEWGLAEQYPEVGTGKRFLNSGGFIGFATTIHQIVRQWKYKDDDDDQLFYTRLYLDPGLREKLSLNLDHKSRIFQNLNGALDEVVLKFDRNRVRIRNVAYDTLPIVVHGNGPTKLQLNYLGNYVPNGWTPEGGCGFCNQDRRTLPGGQPPPRVFLAVFVEQPTPFLPRFLQRLLLLDYPPDRVTLFLHNNEVFHEPHIADSWPQLQDHFSAVKLVGPEEALSPGEARDMAMDLCRQDPECEFYFSLDADAVLTNLQTLRILIEENRKVIAPMLSRHGKLWSNFWGALSPDEYYARSEDYVELVQRKRVGVWNVPYISQAYVIRGDTLRMELPQRDVFSGSDTDPDMAFCKSFRDKGIFLHLSNQHEFGRLLATSRYDTEHLHPDLWQIFDNPVDWKEQYIHENYSRALEGEGIVEQPCPDVYWFPLLSEQMCDELVAEMEHYGQWSGGRHEDSRLAGGYENVPTVDIHMKQVGYEDQWLQLLRTYVGPMTESLFPGYHTKARAVMNFVVRYRPDEQPSLRPHHAHPPSPSTLPSTTRAWTMREVAAASCATTV
# B5: LH1: recombinant human lysyl hydroxylase isoform 1, His-tagged (protein, listed as Homo sapiens)
# chain: MRPLLLLALLGWLLLAEAKGDAKPEDNLLVLTVATKETEGFRRFKRSAQFFNYKIQALGLGEDWNVEKGTSAGGGQKVRLLKKALEKHADKEDLVILFTDSYDVLFASGPRELLKKFRQARSQVVFSAEELIYPDRRLETKYPVVSDGKRFLGSGGFIGYAPNLSKLVAEWEGQDSDSDQLFYTKIFLDPEKREQINITLDHRCRIFQNLDGALDEVVLKFEMGHVRARNLAYDTLPVLIHGNGPTKLQLNYLGNYIPRFWTFETGCTVCDEGLRSLKGIGDEALPTVLVGVFIEQPTPFVSLFFQRLLRLHYPQKHMRLFIHNHEQHHKAQVEEFLAQHGSEYQSVKLVGPEVRMANADARNMGADLCRQDRSCTYYFSVDADVALTEPNSLRLLIQQNKNVIAPLMTRHGRLWSNFWGALSADGYYARSEDYVDIVQGRRVGVWNVPYISNIYLIKGSALRGELQSSDLFHHSKLDPDMAFCANIRQQDVFMFLTNRHTLGHLLSLDSYRTTHLHNDLWEVFSNPEDWKEKYIHQNYTKALAGKLVETPCPDVYWFPIFTEVACDELVEEMEHFGQWSLGNNKDNRIQGGYENVPTIDIHMNQIGFEREWHKFLLEYIAPMTEKLYPGYYTRAQFDLAFVVRYKPDEQPSLMPHHDASTFTINIALNRVGVDYEGGGCRFLRYNCSIRAPRKGWTLMHPGRLTHYHEGLPTTRGTRYIAVSFVDP
# modifications: His6 tag
# notes: recombinant human lysyl hydroxylase isoform 1, His-tagged
# Assays:
# Assay type in all cases: biochemical
# [1] = system: galactosylhydroxylysyl residues in calf skin gelatin substrate; test: GGT (glucosyltransferase) activity of recombinant proteins expressed in Sf9 insect cells; details: for GGT activity, Dpm/plate: Sf9 cells transfected by LH3 constructs; for GGT activity, %: relative to nonmutated LH3 construct; for GGT activity in cell lysates: Sf9 cells, 72 hours after infection
# Text: The glucosyltransferase activity can be assayed as described in Myllylä et al. (1975). The method is based on the transfer of radioactively (tritium) labelled glucose from UDP-glucose to galactosylhydroxylysyl residues in calf skin gelatin substrate and on the specific assay of the product of the enzyme reaction after alkaline hydrolysis.
# (§1) Commercially available baculovirus transfer vector pFastBacI in the BAC-TO-BAC™ expression system (Life technologies, Inc.) was modified to contain human LH1 signal peptide (Hautala et al., 1992) and His6 tag, and BamHI restriction site for insertion of the desired cDNA, nucleotides 289-2455 of LH3 cDNA (SEQ ID NO 6) (Valtavaara et al., 1998). The construct was confirmed by sequencing. The recombinant protein contains His tag at the amino-terminus after signal peptide cleavage. Insect cells were harvested 0-72 hours after infection and homogenized according to the protocol described earlier (Valtavaara et al., 1997).
# Human LH1 signal peptide and His6 tag was inserted to the cDNA constructs of LH1 and LH2. The baculovirus transfer vector pFastBacI was modified so that human LH1 signal sequence followed by nine nucleotides of the amino-terminal end was ligated to the His6 tag followed by nucleotides for BamHI restriction site. The human cDNA sequence (LH1 or LH2) (SEQ ID NO 21, 23 and 25) starting from the likely amino-terminal end of the molecule was ligated to the BamHI site of the construct. Two expression constructs were generated for LH2, LH2a and LH2b (SEQ ID NO 23 and 25), both of them covered the nucleotides from 76 to 2267 (Valtavaara et al., 1997). The LH2b construct contained also the alternatively spliced exon sequence (Valtavaara 1999; Yeowell and Walker, 1999) between nucleotides 1500 and 1501 (SEQ ID NO 25). The constructs were confirmed by sequencing. Insect cells were grown and homogenized as described above.
# (§2) LH activity was assayed by a method based on the hydroxylation-coupled decarboxylation of 2-oxo(1-^14C)glutarate (Kivirikko and Myllylä 1982), synthetic peptide […] was used as a substrate. GGT activity was assayed as described elsewhere (Myllylä et al. 1975). The method is based on the transfer of radioactively (tritium) labelled glucose from UDP-glucose to galactosylhydroxylysyl residues in calf skin gelatin substrate and on the specific assay of the product of the enzyme reaction after alkaline hydrolysis.
# [2] = system: synthetic peptide IKGIKGIKG; test: LH (lysyl hydroxylase) activity of LH3 constructs expressed in Sf9 cells; details: for LH3 activity, Dpm/plate: Sf9 cells transfected by LH3 constructs; for LH3 activity, %: relative to nonmutated LH3 construct
# Text: (§3) The lysyl hydroxylase activity can be assayed by a method based on the hydroxylation-coupled decarboxylation of 2-oxo(1-^14C)glutarate (Kivirikko and Myllylä 1982), synthetic peptide […] was used as a substrate.
# as §1, §2
# [3] = system: hydroxylysyl residues in a calf skin gelatin substrate; test: GT (galactosyltransferase) activity of recombinant proteins expressed in E. coli; details: E. coli cell supernatant, FIG. 12
# Text: The galactosyltransferase activity can be assayed as described in Myllylä et al. (1975). The method is based on the transfer of radioactively (tritium) labelled galactose from UDP-galactose to hydroxylysyl residues in calf skin gelatin substrate and on the specific assay of the product of the enzyme reaction after alkaline hydrolysis.
# [4] = system: synthetic peptide IKGIKGIKG; test: LH activity of human LH isoforms expressed in E. coli; details: E. coli expression system, data not shown
# Text: as §3
# PFastBacI constructs for human LH1, LH2a, LH2b and LH3 were cleaved with BamHI and Hind III restriction enzymes and coding regions were subcloned into same site in E. coli expression vector pQE30 containing (His)6 tag at the amino terminus. Insert for C. elegans LH (corresponding to amino acids 14-730 in cDNA) was generated by PCR and ligated into SacI-PstI site of pOE30 vector. Constructs were transformed into E. coli XL1-Blue strain. Cultures were grown to OD600 of 0.6 at 37° C. Protein expression was induced by adding 1 mM IPTG and incubation was proceed at 30° C. for 5 hours. Cells were harvested and stored at −20° C. For activity measurements cell pellet was suspended to lysis buffer (0.4 M NaCl, 0.5% Nonident and 20 mM Tris-HCl pH 7.8, at 20° C.) and incubated in the presence of lysozyme (50 μg/ml), DNAase (10 μg/ml) and RNAase (10 μg g/ml) at room temperature for 30 minutes. Lysis was completed by sonication. Cell debris was pelleted and supernatant was used in the measurements.
# [5] = system: hydroxylysyl residues in a calf skin gelatin substrate; test: GT activity of recombinant proteins expressed with baculovirus vector in Sf9 cells; details: baculovirus vector in insect cells, not shown
# Protocol: Baculovirus transfer vector pFastBacI in the BAC-TO-BAC™ expression system was used to produce LH3 protein in Sf9 cells. The cDNA construct is in Example 1. The recombinant protein contains the His tag at the amino terminus after signal peptide cleavage. The cells were homogenized as described elsewhere (Valtavaara et al. 1997).
# GT and GGT activities were measured by a method based on the transfer of radioactively (tritium)-labeled sugar from UDP-sugar to hydroxylysyl or galactosylhydroxylysyl residues in a calf skin gelatin substrate, respectively (Myllylä et al. 1975). The specific detection of the reaction products was performed after alkaline hydrolysis.
Molecule,"GGT activity, Dpm/plate [1] [Dpm/plate]","GGT activity, % [1] [%]","LH3 activity, Dpm/plate [2] [Dpm/plate]","LH3 activity, % [2] [%]",GGT activity in cell lysates [1],generation of GT activity [3],LH activity [4],generation of GT activity [5]
B1,180000,23,<300,<5,–,–,–,–
B2,650,0.1,<300,<5,–,–,–,–
B3,–,–,–,–,none of these recombinant proteins had detectable GGT activity,LH3 was the only one being able to generate GT activity,no LH activity can be found,did not generated GT activity
B4,360000,47,<300,<5,–,–,–,–
B5,–,–,–,–,none of these recombinant proteins had detectable GGT activity,LH3 was the only one being able to generate GT activity,no LH activity can be found,did not generated GT activity
